Patent CN101724074A (SUZHOU IND PARK CHENJIAN ANTIB, dated 2010)

Molecular target: T1, 重组人ATP5B (rhATP5B) (human, UniProt P06576 48-529)
T1 construct: mature; Mr about 55 000; also called rhATP5B蛋白; rhATP5B抗原; not shown: His-tag and vector-derived residues of pET28a(+) (insert cloned SacI/HindIII)
Assay: ELISA on culture supernatant of CHO-DG44 transfectants

T1 sequence (P06576 48-529): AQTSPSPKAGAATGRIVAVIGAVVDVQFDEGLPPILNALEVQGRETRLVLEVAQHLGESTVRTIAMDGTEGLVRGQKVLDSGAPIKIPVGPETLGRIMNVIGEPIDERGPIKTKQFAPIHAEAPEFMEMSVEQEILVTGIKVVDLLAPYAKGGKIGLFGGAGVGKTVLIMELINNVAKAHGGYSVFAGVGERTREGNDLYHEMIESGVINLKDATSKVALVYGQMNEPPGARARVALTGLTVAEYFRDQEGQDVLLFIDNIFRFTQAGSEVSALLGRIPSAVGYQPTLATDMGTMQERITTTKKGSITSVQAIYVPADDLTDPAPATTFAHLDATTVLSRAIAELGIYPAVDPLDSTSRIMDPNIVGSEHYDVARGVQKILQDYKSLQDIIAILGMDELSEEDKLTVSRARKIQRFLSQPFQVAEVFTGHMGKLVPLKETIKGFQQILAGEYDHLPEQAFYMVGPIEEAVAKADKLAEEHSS

B1: 抗ATP5B人鼠嵌合抗体c7A8 (antibody, human IgG1, kappa, V domains shown)
VH: EVQLLESGAELVKPGASVKLSCTASGFNIKDAYMYWVRQRPEQGLEWIGRIDPANDNTKYDPKFQGRATITADTSSNTAYLQLSSLTSEDTAVHYCARFYSVYAMDYWGQGTSVTVSS
VL: TQSPAIMSASPGEKVTITCSASSSVSYMHWFQQQPGTSPKLWVYTTSNLAFGVPARFSGSGPGTSYSLTISRMEAEDAATYYCQQRSSYPLTFGAGTKLELTR
notes: Chimeric IgG1/kappa: signal peptide and variable region of m7A8 joined to human IgG1 constant regions; tested as culture supernatant of transfected CHO-DG44 clone E1; also called 血管抑素受体β亚基人源化嵌合抗体; 人源化嵌合抗体
  binding result: binds
